Bridge positions count the residues as written; N and C are the ends. Square brackets hold non-standard residues; d marks the D form.
B1: Compound 106 (peptide)
peptide: Ac-CRLP[dW]NLQRIGLPC-NH2
modifications: disulfide 1-14
SMILES: CC[C@H](C)[C@@H]1NC(=O)[C@H](CCCNC(=N)N)NC(=O)[C@H](CCC(N)=O)NC(=O)[C@H](CC(C)C)NC(=O)[C@H](CC(N)=O)NC(=O)[C@@H](Cc2c[nH]c3ccccc23)NC(=O)[C@@H]2CCCN2C(=O)[C@H](CC(C)C)NC(=O)[C@H](CCCNC(=N)N)NC(=O)[C@@H](NC(C)=O)CSSC[C@@H](C(N)=O)NC(=O)[C@@H]2CCCN2C(=O)[C@H](CC(C)C)NC(=O)CNC1=O
B2: Compound 103 (peptide)
peptide: Ac-CRLPWNL[dQ]RIGLPC-NH2
modifications: disulfide 1-14
SMILES: CC[C@H](C)[C@@H]1NC(=O)[C@H](CCCNC(=N)N)NC(=O)[C@@H](CCC(N)=O)NC(=O)[C@H](CC(C)C)NC(=O)[C@H](CC(N)=O)NC(=O)[C@H](Cc2c[nH]c3ccccc23)NC(=O)[C@@H]2CCCN2C(=O)[C@H](CC(C)C)NC(=O)[C@H](CCCNC(=N)N)NC(=O)[C@@H](NC(C)=O)CSSC[C@@H](C(N)=O)NC(=O)[C@@H]2CCCN2C(=O)[C@H](CC(C)C)NC(=O)CNC1=O
notes: also called Ac-CRLPWNLqRIGLPC-NH2
B3: Compound 102 (peptide)
peptide: Ac-CRLPWNLQ[dR]IGLPC-NH2
modifications: disulfide 1-14
SMILES: CC[C@H](C)[C@@H]1NC(=O)[C@@H](CCCNC(=N)N)NC(=O)[C@H](CCC(N)=O)NC(=O)[C@H](CC(C)C)NC(=O)[C@H](CC(N)=O)NC(=O)[C@H](Cc2c[nH]c3ccccc23)NC(=O)[C@@H]2CCCN2C(=O)[C@H](CC(C)C)NC(=O)[C@H](CCCNC(=N)N)NC(=O)[C@@H](NC(C)=O)CSSC[C@@H](C(N)=O)NC(=O)[C@@H]2CCCN2C(=O)[C@H](CC(C)C)NC(=O)CNC1=O
B4: Compound 107 (peptide)
peptide: Ac-CRL[dP]WNLQRIGLPC-NH2
modifications: disulfide 1-14
SMILES: CC[C@H](C)[C@@H]1NC(=O)[C@H](CCCNC(=N)N)NC(=O)[C@H](CCC(N)=O)NC(=O)[C@H](CC(C)C)NC(=O)[C@H](CC(N)=O)NC(=O)[C@H](Cc2c[nH]c3ccccc23)NC(=O)[C@H]2CCCN2C(=O)[C@H](CC(C)C)NC(=O)[C@H](CCCNC(=N)N)NC(=O)[C@@H](NC(C)=O)CSSC[C@@H](C(N)=O)NC(=O)[C@@H]2CCCN2C(=O)[C@H](CC(C)C)NC(=O)CNC1=O
B5: Compound 105 (peptide)
peptide: Ac-CRLPW[dN]LQRIGLPC-NH2
modifications: disulfide 1-14
SMILES: CC[C@H](C)[C@@H]1NC(=O)[C@H](CCCNC(=N)N)NC(=O)[C@H](CCC(N)=O)NC(=O)[C@H](CC(C)C)NC(=O)[C@@H](CC(N)=O)NC(=O)[C@H](Cc2c[nH]c3ccccc23)NC(=O)[C@@H]2CCCN2C(=O)[C@H](CC(C)C)NC(=O)[C@H](CCCNC(=N)N)NC(=O)[C@@H](NC(C)=O)CSSC[C@@H](C(N)=O)NC(=O)[C@@H]2CCCN2C(=O)[C@H](CC(C)C)NC(=O)CNC1=O
B6: Compound 104 (peptide)
peptide: Ac-CRLPWN[dL]QRIGLPC-NH2
modifications: disulfide 1-14
SMILES: CC[C@H](C)[C@@H]1NC(=O)[C@H](CCCNC(=N)N)NC(=O)[C@H](CCC(N)=O)NC(=O)[C@@H](CC(C)C)NC(=O)[C@H](CC(N)=O)NC(=O)[C@H](Cc2c[nH]c3ccccc23)NC(=O)[C@@H]2CCCN2C(=O)[C@H](CC(C)C)NC(=O)[C@H](CCCNC(=N)N)NC(=O)[C@@H](NC(C)=O)CSSC[C@@H](C(N)=O)NC(=O)[C@@H]2CCCN2C(=O)[C@H](CC(C)C)NC(=O)CNC1=O
notes: also called Ac-CRLPWNlQRIGLPC-NH2

The binders below were run against T1, His-tagged, full-length PCSK9 (human, UniProt A8T644 31-152; Q8NBP7 153-692) (assay: TR-FRET competition; competitor EGF(A)-Fc on His-PCSK9).
T1 construct: Target protein of the PCSK9/EGF(A) TR-FRET assay (10 nM); also called His-PCSK9; proprotein convertase subtilisin/kexin type 9
T1 sequence (A8T644 31-152 limits assumed, chain 1 of 2): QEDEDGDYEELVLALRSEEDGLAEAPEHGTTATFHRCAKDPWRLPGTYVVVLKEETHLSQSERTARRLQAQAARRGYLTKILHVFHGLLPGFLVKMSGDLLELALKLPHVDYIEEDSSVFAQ
T1 sequence (A8T644 other isoform, or with tags, fused parts or gaps limits assumed, chain 2 of 2): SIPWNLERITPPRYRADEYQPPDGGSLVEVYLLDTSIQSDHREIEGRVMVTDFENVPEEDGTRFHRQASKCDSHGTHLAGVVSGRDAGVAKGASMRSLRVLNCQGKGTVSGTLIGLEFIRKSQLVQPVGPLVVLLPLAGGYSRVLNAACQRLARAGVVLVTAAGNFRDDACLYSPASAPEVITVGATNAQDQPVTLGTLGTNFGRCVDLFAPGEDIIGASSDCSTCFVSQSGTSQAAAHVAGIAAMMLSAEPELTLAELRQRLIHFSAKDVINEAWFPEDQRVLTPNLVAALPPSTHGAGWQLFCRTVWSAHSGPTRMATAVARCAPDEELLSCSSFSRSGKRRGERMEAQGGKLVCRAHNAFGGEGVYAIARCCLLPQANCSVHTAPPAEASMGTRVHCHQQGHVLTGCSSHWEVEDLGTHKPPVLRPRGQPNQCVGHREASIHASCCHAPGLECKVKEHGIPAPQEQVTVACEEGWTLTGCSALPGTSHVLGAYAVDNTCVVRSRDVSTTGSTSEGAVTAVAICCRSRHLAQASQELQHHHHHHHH

IC50, > 50 µM:
B1
B2
B3
B4
B5
B6

Source: patent publication US20190177366A1 (published 2019)
